Measured values published in patent US20130197191A1 (Amgen, published 2013).
Read-outs that look alike come from different tables or passages of the source. Blank lines part the entries; values can stand above or below the binder they belong to.

How the values were obtained:
Experiment in all cases: phage panning
[1] = target: T1, recombinant human β-Klotho (human, UniProt Q86Z14 53-996, limits assumed, biotinylated in the AlphaScreen assays (site not stated))
T1 construct: also called rhβ-klotho; huβKlotho-His
T1 sequence: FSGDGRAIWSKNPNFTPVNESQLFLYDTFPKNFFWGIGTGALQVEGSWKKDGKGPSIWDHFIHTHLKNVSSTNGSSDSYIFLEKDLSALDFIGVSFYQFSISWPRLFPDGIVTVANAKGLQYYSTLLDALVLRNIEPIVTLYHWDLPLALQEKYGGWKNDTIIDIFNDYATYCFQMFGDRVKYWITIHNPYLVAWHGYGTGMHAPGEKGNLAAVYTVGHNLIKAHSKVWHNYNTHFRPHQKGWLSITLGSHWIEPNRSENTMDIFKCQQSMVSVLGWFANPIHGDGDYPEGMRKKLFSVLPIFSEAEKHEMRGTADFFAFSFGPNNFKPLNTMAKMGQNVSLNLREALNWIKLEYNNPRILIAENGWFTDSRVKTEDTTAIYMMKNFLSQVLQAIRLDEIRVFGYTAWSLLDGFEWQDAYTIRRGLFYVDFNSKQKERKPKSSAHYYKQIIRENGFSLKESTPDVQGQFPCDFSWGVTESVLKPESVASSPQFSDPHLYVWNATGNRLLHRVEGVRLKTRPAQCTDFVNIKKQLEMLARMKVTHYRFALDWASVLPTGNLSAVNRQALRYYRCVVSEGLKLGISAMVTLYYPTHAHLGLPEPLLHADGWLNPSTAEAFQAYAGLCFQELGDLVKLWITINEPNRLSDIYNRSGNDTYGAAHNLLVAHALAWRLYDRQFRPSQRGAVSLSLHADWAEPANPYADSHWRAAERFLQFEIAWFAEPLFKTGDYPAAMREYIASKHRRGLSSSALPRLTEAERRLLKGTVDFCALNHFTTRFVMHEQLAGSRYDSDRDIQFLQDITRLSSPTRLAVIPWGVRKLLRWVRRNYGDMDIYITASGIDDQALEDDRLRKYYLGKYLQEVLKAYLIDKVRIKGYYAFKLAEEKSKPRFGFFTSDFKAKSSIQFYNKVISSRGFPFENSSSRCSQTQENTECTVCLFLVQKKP

[2] = target: T1, recombinant human β-Klotho; remark: listed apart in the source
[3] = target: T1, recombinant human β-Klotho; remark: listed apart in the source
[4] = target: T1, recombinant human β-Klotho; remark: listed apart in the source
[5] = target: T1, recombinant human β-Klotho; remark: listed apart in the source
[6] = target: T1, recombinant human β-Klotho; remark: listed apart in the source
human FGFR1c-Fc = target: T2, human FGFR1c-Fc (human, UniProt P11362 22-376)
T2 construct: also called huFGFR1c-Fc; huFGFR1c/Fc
T2 sequence: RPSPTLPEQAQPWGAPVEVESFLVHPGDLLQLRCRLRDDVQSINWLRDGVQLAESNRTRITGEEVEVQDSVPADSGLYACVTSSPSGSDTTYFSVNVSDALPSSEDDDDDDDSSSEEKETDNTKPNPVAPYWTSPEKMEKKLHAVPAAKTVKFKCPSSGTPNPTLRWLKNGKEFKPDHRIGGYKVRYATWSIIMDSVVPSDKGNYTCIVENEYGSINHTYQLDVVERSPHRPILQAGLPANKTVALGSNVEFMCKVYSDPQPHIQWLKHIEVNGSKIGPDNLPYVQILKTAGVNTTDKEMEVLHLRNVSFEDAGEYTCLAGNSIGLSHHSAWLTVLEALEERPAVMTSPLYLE

- binding result [2]: binds
B5: β-Klotho walked dimer BK_R1c_D15 (designed binder)
chain: CLPDEFQCGSGRCIPQTWVCDGLNDCGDGSDEPPAHCSAPASEPPGSLCRSNQFTCGNGNCIPQPWVCDGEDDCGDDSDEESCKEHT

- binding result [5]: binds
B6: β-Klotho walked dimer BK_R1c_D18 (designed binder)
chain: CPPDEFQCRGTKKCLPLAWVCDGDNDCEDDSDEESCASAVHTCQSNEFRCRSGRCIPQHWLCDGLNDCGDGSDESQQCSAPASEPPGSL

- binding result [2]: binds
B7: β-Klotho walked dimer BK_R1c_D14 (designed binder)
chain: CLPDEFQCGSGRCIPQTWVCDGLNDCGDGSDEPPAHCSAPASEPPGSLCRSDEFRCGNGRCIPLTWVCDGEDDCQDSSDETGCTTPGHT

- binding result [6]: binds
B8: β-Klotho walked dimer BK_R1c_D22 (designed binder)
chain: CQPDEFTCSSGRCIPQPWLCDGLNDCGDGSDEPPAHCSAPASEPPGSLCRPDEFRCKNGRCIPQTWVCDGEDDCQDSSDETDCESTVRT

- binding result (human FGFR1c-Fc): binds
Binder: CGAGLFTCRSTNICISQVWVCDGVDDCEDNSDEDSCSAPASEPPGSL (designed binder, also called M03mutM01) [FGFR1c-binding monomer M03mut01]

Continued, binder first:

B1: β-Klotho walked dimer BK_R1c_D24 (designed binder)
chain: CRPDEFPCRSTGRCVPRRWVCDGVDDCGDNSDESLAHCQTPTCQPDEFTCSSGRCIPQPWLCDGLNDCGDGSDEPPAHCSAPASEPPGSL
- binding result [1]: binds

B2: β-Klotho walked dimer bKWD01 (designed binder)
chain: CLPDEFQCGSGRCIPQHWLCDGLNDCGDGSDEPPAHCSAPASEPPGSLCRAGEFRCSNGRCVPLTWLCDGEDDCQDNSDEKNCAQPT
- binding result [2]: binds

B3: β-Klotho-binding monomer bKmutM28 (designed binder)
chain: CPWFHHFKCRNGQRIPLHLVCDGVPDCGDDSDETDCGDSHILPFSTPGPST
- binding result [3]: binds

B4: β-Klotho walked dimer BK_R1c_D05 (designed binder)
chain: CAAGQFRCHNSDTCLPGAWVCDGDNDCGDNSDEASCQKRTCHSFNQFECRNGQCIPLHLVCDGVPDCGDNSDETDCGDSHILPFSTPGPST
- binding result [4]: binds
